Source: patent publication US20200115430A1 (I2O THERAPEUTICS, published 2020)
Starred links: 1 amine or outer side, 2 acyl side, 3 side chain; linkers in the order of their positions; H or OH if unused. Positions of bridges follow the written chain, without caps; N, C: chain ends. Groups on a side chain read outwards from the residue. Primed or numbered codes have the meaning given here. No end group written: not given here. *: point of attachment. dpeg″ = —[CO(CH2)O(CH2)2O(CH2)NH]— spacer unit, O=C(COCCOCN[*:1])[*:2]; C20 diacid = O=C(O)CCCCCCCCCCCCCCCCCCC(=O)*; C18 diacid = O=C(O)CCCCCCCCCCCCCCCCC(=O)*; γGlu = O=C(O)[C@H](CCC(=O)[*:2])N[*:1]; Palmitoyl = CCCCCCCCCCCCCCCC(=O)*

T1: human calcitonin receptor (human, UniProt P30988 25-474)
T1 sequence (looked up): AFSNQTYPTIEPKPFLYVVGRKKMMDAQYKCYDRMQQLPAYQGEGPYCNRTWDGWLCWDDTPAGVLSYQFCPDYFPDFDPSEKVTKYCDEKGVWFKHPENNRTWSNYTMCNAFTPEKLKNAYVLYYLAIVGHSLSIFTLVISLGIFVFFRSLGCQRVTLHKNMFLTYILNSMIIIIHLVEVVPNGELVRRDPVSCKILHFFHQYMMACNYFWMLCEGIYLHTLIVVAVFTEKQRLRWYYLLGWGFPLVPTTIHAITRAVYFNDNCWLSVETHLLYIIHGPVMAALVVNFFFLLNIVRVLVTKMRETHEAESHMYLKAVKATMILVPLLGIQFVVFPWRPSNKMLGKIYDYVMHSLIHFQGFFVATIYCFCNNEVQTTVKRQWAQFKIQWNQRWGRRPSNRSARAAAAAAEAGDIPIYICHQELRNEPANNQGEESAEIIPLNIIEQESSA

T2: human amylin 3 receptor (human, UniProt P30988 25-474; O60896 24-148)
T2 sequence (looked up) 1: T1 sequence (looked up)
T2 sequence (looked up) 2: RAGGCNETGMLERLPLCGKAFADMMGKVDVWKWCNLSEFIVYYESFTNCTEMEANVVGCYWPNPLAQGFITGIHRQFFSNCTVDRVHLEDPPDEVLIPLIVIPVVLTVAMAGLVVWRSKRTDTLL

B1: Compound A109 (peptide)
peptide: K([γGlu-C18 diacid])CNTSTCATSRLANFLQKSSNNFGPILPPTKVGSETY-NH2
modifications: disulfide 2-7; N-terminus assumed
SMILES: CC[C@H](C)[C@H](NC(=O)[C@@H]1CCCN1C(=O)CNC(=O)[C@H](Cc1ccccc1)NC(=O)[C@H](CC(N)=O)NC(=O)[C@H](CC(N)=O)NC(=O)[C@H](CO)NC(=O)[C@H](CO)NC(=O)[C@H](CCCCN)NC(=O)[C@H](CCC(N)=O)NC(=O)[C@H](CC(C)C)NC(=O)[C@H](Cc1ccccc1)NC(=O)[C@H](CC(N)=O)NC(=O)[C@H](C)NC(=O)[C@H](CC(C)C)NC(=O)[C@H](CCCNC(=N)N)NC(=O)[C@H](CO)NC(=O)[C@@H](NC(=O)[C@H](C)NC(=O)[C@@H]1CSSC[C@H](NC(=O)[C@@H](N)CCCCNC(=O)CC[C@H](NC(=O)CCCCCCCCCCCCCCCCC(=O)O)C(=O)O)C(=O)N[C@@H](CC(N)=O)C(=O)N[C@@H]([C@@H](C)O)C(=O)N[C@@H](CO)C(=O)N[C@@H]([C@@H](C)O)C(=O)N1)[C@@H](C)O)C(=O)N[C@@H](CC(C)C)C(=O)N1CCC[C@H]1C(=O)N1CCC[C@H]1C(=O)N[C@H](C(=O)N[C@@H](CCCCN)C(=O)N[C@H](C(=O)NCC(=O)N[C@@H](CO)C(=O)N[C@@H](CCC(=O)O)C(=O)N[C@H](C(=O)N[C@@H](Cc1ccc(O)cc1)C(N)=O)[C@@H](C)O)C(C)C)[C@@H](C)O
B2: Compound A107 (peptide)
peptide: SCNTSTCATQRLK([γGlu-Palmitoyl])NELHKSSNNFGPILPPTKVGSETY-NH2
modifications: disulfide 2-7; N-terminus assumed
SMILES: CCCCCCCCCCCCCCCC(=O)N[C@@H](CCC(=O)NCCCC[C@H](NC(=O)[C@H](CC(C)C)NC(=O)[C@H](CCCNC(=N)N)NC(=O)[C@H](CCC(N)=O)NC(=O)[C@@H](NC(=O)[C@H](C)NC(=O)[C@@H]1CSSC[C@H](NC(=O)[C@@H](N)CO)C(=O)N[C@@H](CC(N)=O)C(=O)N[C@@H]([C@@H](C)O)C(=O)N[C@@H](CO)C(=O)N[C@@H]([C@@H](C)O)C(=O)N1)[C@@H](C)O)C(=O)N[C@@H](CC(N)=O)C(=O)N[C@@H](CCC(=O)O)C(=O)N[C@@H](CC(C)C)C(=O)N[C@@H](Cc1c[nH]cn1)C(=O)N[C@@H](CCCCN)C(=O)N[C@@H](CO)C(=O)N[C@@H](CO)C(=O)N[C@@H](CC(N)=O)C(=O)N[C@@H](CC(N)=O)C(=O)N[C@@H](Cc1ccccc1)C(=O)NCC(=O)N1CCC[C@H]1C(=O)N[C@H](C(=O)N[C@@H](CC(C)C)C(=O)N1CCC[C@H]1C(=O)N1CCC[C@H]1C(=O)N[C@H](C(=O)N[C@@H](CCCCN)C(=O)N[C@H](C(=O)NCC(=O)N[C@@H](CO)C(=O)N[C@@H](CCC(=O)O)C(=O)N[C@H](C(=O)N[C@@H](Cc1ccc(O)cc1)C(N)=O)[C@@H](C)O)C(C)C)[C@@H](C)O)[C@@H](C)CC)C(=O)O
B3: Compound A120 (peptide)
peptide: K(C18 diacid)CNTSTCATQRLANELHKSSNNFGPILPPTKVGSETY-NH2
modifications: disulfide 2-7; N-terminus assumed
SMILES: CC[C@H](C)[C@H](NC(=O)[C@@H]1CCCN1C(=O)CNC(=O)[C@H](Cc1ccccc1)NC(=O)[C@H](CC(N)=O)NC(=O)[C@H](CC(N)=O)NC(=O)[C@H](CO)NC(=O)[C@H](CO)NC(=O)[C@H](CCCCN)NC(=O)[C@H](Cc1c[nH]cn1)NC(=O)[C@H](CC(C)C)NC(=O)[C@H](CCC(=O)O)NC(=O)[C@H](CC(N)=O)NC(=O)[C@H](C)NC(=O)[C@H](CC(C)C)NC(=O)[C@H](CCCNC(=N)N)NC(=O)[C@H](CCC(N)=O)NC(=O)[C@@H](NC(=O)[C@H](C)NC(=O)[C@@H]1CSSC[C@H](NC(=O)[C@@H](N)CCCCNC(=O)CCCCCCCCCCCCCCCCC(=O)O)C(=O)N[C@@H](CC(N)=O)C(=O)N[C@@H]([C@@H](C)O)C(=O)N[C@@H](CO)C(=O)N[C@@H]([C@@H](C)O)C(=O)N1)[C@@H](C)O)C(=O)N[C@@H](CC(C)C)C(=O)N1CCC[C@H]1C(=O)N1CCC[C@H]1C(=O)N[C@H](C(=O)N[C@@H](CCCCN)C(=O)N[C@H](C(=O)NCC(=O)N[C@@H](CO)C(=O)N[C@@H](CCC(=O)O)C(=O)N[C@H](C(=O)N[C@@H](Cc1ccc(O)cc1)C(N)=O)[C@@H](C)O)C(C)C)[C@@H](C)O
B4: Compound A115 (peptide)
peptide: K(C20 diacid)CNTSTCATQRLANELHKSSNNFGPILPPTKVGSETY-NH2
modifications: disulfide 2-7; N-terminus assumed
SMILES: CC[C@H](C)[C@H](NC(=O)[C@@H]1CCCN1C(=O)CNC(=O)[C@H](Cc1ccccc1)NC(=O)[C@H](CC(N)=O)NC(=O)[C@H](CC(N)=O)NC(=O)[C@H](CO)NC(=O)[C@H](CO)NC(=O)[C@H](CCCCN)NC(=O)[C@H](Cc1c[nH]cn1)NC(=O)[C@H](CC(C)C)NC(=O)[C@H](CCC(=O)O)NC(=O)[C@H](CC(N)=O)NC(=O)[C@H](C)NC(=O)[C@H](CC(C)C)NC(=O)[C@H](CCCNC(=N)N)NC(=O)[C@H](CCC(N)=O)NC(=O)[C@@H](NC(=O)[C@H](C)NC(=O)[C@@H]1CSSC[C@H](NC(=O)[C@@H](N)CCCCNC(=O)CCCCCCCCCCCCCCCCCCC(=O)O)C(=O)N[C@@H](CC(N)=O)C(=O)N[C@@H]([C@@H](C)O)C(=O)N[C@@H](CO)C(=O)N[C@@H]([C@@H](C)O)C(=O)N1)[C@@H](C)O)C(=O)N[C@@H](CC(C)C)C(=O)N1CCC[C@H]1C(=O)N1CCC[C@H]1C(=O)N[C@H](C(=O)N[C@@H](CCCCN)C(=O)N[C@H](C(=O)NCC(=O)N[C@@H](CO)C(=O)N[C@@H](CCC(=O)O)C(=O)N[C@H](C(=O)N[C@@H](Cc1ccc(O)cc1)C(N)=O)[C@@H](C)O)C(C)C)[C@@H](C)O
B5: Compound A119 (peptide)
peptide: K([γGlu-C20 diacid])CNTSTCATQRLANELHKSSNNFGPILPPTKVGSETY-NH2
modifications: disulfide 2-7; N-terminus assumed
SMILES: CC[C@H](C)[C@H](NC(=O)[C@@H]1CCCN1C(=O)CNC(=O)[C@H](Cc1ccccc1)NC(=O)[C@H](CC(N)=O)NC(=O)[C@H](CC(N)=O)NC(=O)[C@H](CO)NC(=O)[C@H](CO)NC(=O)[C@H](CCCCN)NC(=O)[C@H](Cc1c[nH]cn1)NC(=O)[C@H](CC(C)C)NC(=O)[C@H](CCC(=O)O)NC(=O)[C@H](CC(N)=O)NC(=O)[C@H](C)NC(=O)[C@H](CC(C)C)NC(=O)[C@H](CCCNC(=N)N)NC(=O)[C@H](CCC(N)=O)NC(=O)[C@@H](NC(=O)[C@H](C)NC(=O)[C@@H]1CSSC[C@H](NC(=O)[C@@H](N)CCCCNC(=O)CC[C@H](NC(=O)CCCCCCCCCCCCCCCCCCC(=O)O)C(=O)O)C(=O)N[C@@H](CC(N)=O)C(=O)N[C@@H]([C@@H](C)O)C(=O)N[C@@H](CO)C(=O)N[C@@H]([C@@H](C)O)C(=O)N1)[C@@H](C)O)C(=O)N[C@@H](CC(C)C)C(=O)N1CCC[C@H]1C(=O)N1CCC[C@H]1C(=O)N[C@H](C(=O)N[C@@H](CCCCN)C(=O)N[C@H](C(=O)NCC(=O)N[C@@H](CO)C(=O)N[C@@H](CCC(=O)O)C(=O)N[C@H](C(=O)N[C@@H](Cc1ccc(O)cc1)C(N)=O)[C@@H](C)O)C(C)C)[C@@H](C)O

Target: T1, human calcitonin receptor
Assay: cell-based or functional assay

pEC50 (cAMP accumulation), 0% HSA [pEC50]	pEC50 (cAMP accumulation), 0.1% HSA [pEC50]	pEC50 (cAMP accumulation), 4% HSA [pEC50]	Binder
11.7	10.5	9	B1
11.5	10.5	9	B2
11.3	9.7	8.1	K([dpeg″-dpeg″-γGlu-C18 diacid])CNTSTCATQRLANELHKSSNNFGPILPPTKVGSETY-NH2 (disulfide 2-7) [Compound A113]
10.3	8.9	7.4	B3
11.5	9.9	8.5	B4
11.2	9.5	7.9	B5

Target: T2, human amylin 3 receptor
Assay: cell-based or functional assay

pEC50 (cAMP accumulation), 0% HSA [pEC50]	pEC50 (cAMP accumulation), 0.1% HSA [pEC50]	pEC50 (cAMP accumulation), 4% HSA [pEC50]	Binder
12.2	11.1	9.6	B1
12.5	11.6	10.3	B2
12.3	10.6	9	K([dpeg″-dpeg″-γGlu-C18 diacid])CNTSTCATQRLANELHKSSNNFGPILPPTKVGSETY-NH2 (disulfide 2-7) [Compound A113]
11.4	9.7	8.4	B3
12.3	10.7	9.4	B4
11.9	10.2	8.5	B5
